B1: LINE1-full (parent)
chain: UACGUAGGUGGUUUUCCCCUGAUAGUGCUAAGGGGGCCUGGAAGUUUGGACUGGGCAGAGCUCAACACAGCGUGGCAAAGUGGCUGUGGCUAGACUGCCUCUCUGGAUUCCUCGUCACUCAGCAGGGCAUCUCUGAGAGAAAUGCC

Variants of: B1
Assay: self-cleavage, relative activity (ratio to wild type); higher = more cleavage; in vitro, sequencing; the parent is a self-cleaving ribozyme

Variant | self-cleavage
UACGUAGGUGGUUCUCCCCUGAUAGUGCUAAGGGGGCCUGGAAGUUUGGACUGGGCAGAGCUCAACACAGCGUGGCAAAGUGGCUGUGGCUAGACUGCCUCUCUGGAUUCCUCGUCACUCAGCAGGGCAUCUCUGAGUGAAAUGCC [U14C A138U] | 0.98
UACGUAGGUGGUUUUCCCCUGAUAGUGCUAAGGGGGCCUGGAAGUUUGGACUGGGCAGAGCUCAACACAGCGUGGCAAAGUGGCUGUGGCUAGACUGCCUCCCUGGAUUUCUCGUCACUCAGCAGGGCAUCUCUGAGAGAAAUGCC [U102C C110U] | 1.78
UACGUAGGUGGUUUUCCCCUGAUAGUGCUUAGGGGGCCUGGAAGUUUGGACUGGGCAGAGCUCAACACAGCGUGGCAAAGUGGCUGUGGCUAGACUGCCUCUCUGGAUUCCUCGUCACUCAGCGGGGCAUCUCUGAGAGAAAUGCC [A30U A124G] | 0.84
UACGUAGGUGGUCUUCCCCUGAUAGUGCUAAGGGGGCCUGGAAGUUUGGACUGGGCAGAGCUCAACACAGCGUGGCAAAGAGGCUGUGGCUAGACUGCCUCUCUGGAUUCCUCGUCACUCAGCAGGGCAUCUCUGAGAGAAAUGCC [U13C U81A] | 1.56
UACGUAGGUGGUUUUCCCCUGAUAGUGCUAAGGGGGCCUGGAAGUUUGGACUGGGCAGAGCUCAACACAGCGUGGCAAAGUGGCUGUGGCUAGACUGCCUCUCUGGAUUCCUCGCCACUCAGCAGGGCAUCUCUGAGAGAACUGCC [U115C A142C] | 2.05
UACGUAGGUGGUUUUCCCCUGAUAGUGCUAAGGGGGCCUGGAAGUUUGGACUGGGCAAAGCUCAACACAGCGUGGCAAAGUGGCUGUGGCUAGACUGCCUCUCUGGAUUUCUCGUCACUCAGCAGGGCAUCUCUGAGAGAAAUGCC [G58A C110U] | 0.05
UACGUAGGUGGUUUUCCCCUGAUAGUGCUAAGGGGGCCUGGAAGUUUGGACUGGGCAGAGCUCAACACAGCGUGGCACAGUGGCUGUGGCUAGACUGCCUCCCUGGAUUCCUCGUCACUCAGCAGGGCAUCUCUGAGAGAAAUGCC [A78C U102C] | 2.53
UACGUAUGUGGUUUUCCCCUGAUAGUGCUAAGGGGGCCUGGAAGUUUGGACUGGGCAGAGCUCGACACAGCGUGGCAAAGUGGCUGUGGCUAGACUGCCUCUCUGGAUUCCUCGUCACUCAGCAGGGCAUCUCUGAGAGAAAUGCC [G7U A64G] | 0.35
UACGUAGGUGGUUUUCCCCUGAUAGUGCUAAGGGGGCCUGGAAGUUUGGACUGGGCAGAGUUCAACACAGCGUGGCAAAGUGGCUGUGGCUAGACUGCCUCUCUGAAUUCCUCGUCACUCAGCAGGGCAUCUCUGAGAGAAAUGCC [C61U G106A] | 0.02
UACGUAGGUGGUAUUCCCCUGAUAGUGCUAAGGGGGCCUGGAAGUUUGGACCGGGCAGAGCUCAACACAGCGUGGCAAAGUGGCUGUGGCUAGACUGCCUCUCUGGAUUCCUCGUCACUCAGCAGGGCAUCUCUGAGAGAAAUGCC [U13A U52C] | 1.78
UACGUAGGUGGUUUUCCCCUGAUAGUGCUAAGGGGGCCUGGAAGUUUGGACUAGGCAGGGCUCAACACAGCGUGGCAAAGUGGCUGUGGCUAGACUGCCUCUCUGGAUUCCUCGUCACUCAGCAGGGCAUCUCUGAGAGAAAUGCC [G53A A59G] | 0.06
UACGUAGGUGGUUUUCCCCUGAUAGUGCUAAGGGGGCCUGGAAGUUAGGACUGGGCAGAGCUCAACACAGCGUGGCAAAGUGGCUGUGGCUAGACCGCCUCUCUGGAUUCCUCGUCACUCAGCAGGGCAUCUCUGAGAGAAAUGCC [U47A U96C] | 0.13
UACGUAGGUGGUUUUCCCCUGAUAGUGCUAAGGGGGCCAGGAAGUUUGGACUGGGCAGAGCUCAACACAGCGUGGCAAAGUGGCUGUGGCUAGACUGCCUCUCUGGAUUCCUCGUCACUCAGCAGGGCGUCUCUGAGAGAAAUGCC [U39A A129G] | 1.27
UACGUAGGUGGUUUUCCCCUGAUAGUGCUAAGGGGGCCUGGAAGUUUGGACCGGGCUGAGCUCAACACAGCGUGGCAAAGUGGCUGUGGCUAGACUGCCUCUCUGGAUUCCUCGUCACUCAGCAGGGCAUCUCUGAGAGAAAUGCC [U52C A57U] | 0.08
UACAUAGGUGGUUUUCCCCUGAUAGUGCUAAGGGGGCCUGGAAGUUUGGACUGGGCAGAGCGCAACACAGCGUGGCAAAGUGGCUGUGGCUAGACUGCCUCUCUGGAUUCCUCGUCACUCAGCAGGGCAUCUCUGAGAGAAAUGCC [G4A U62G] | 0
UACGUAGGUGGUUUUCCCCCGAUAGUGCUAAGGGGGCCUGGAAGUUUGGACUGGGCAGAGCUCAACACAGCGUGGCAAAGUGGCUGUGGCUAGACUGCCUCUCUGGGUUCCUCGUCACUCAGCAGGGCAUCUCUGAGAGAAAUGCC [U20C A107G] | 1.6
UACGUAGGUGGUUUUCCCCUGAUAGUGCUAAGGGGGCCUGGAAGUUUGGACUGGGCAGAGCUCAACACAGCGUGGCAGAGUGGCUGUGGCUAGACAGCCUCUCUGGAUUCCUCGUCACUCAGCAGGGCAUCUCUGAGAGAAAUGCC [A78G U96A] | 0.06
UACGUAGGUGGUUUUCCCCUGAUAGUGCUAAGGGGGCCUGGAAGUUUGGACUGGGCAGAGCUCAACACAGCGUGGCAAAGUGGCUGUGGCUAGACUGCCUCUCUGGAUCCCUCGUCACUCAACAGGGCAUCUCUGAGAGAAAUGCC [U109C G122A] | 1.81
UACGUAGGUGGUUUUCCCCUGAUAGUGCUAAGGGGGCCUGGAAGUUUGCACUGGGCAGAGCUCAACACAGCGUGGCAAAGUGGCUGUGGCUAGACUGCCUCUCUGGAUUCCUCGUCACUCAGCAGGGCACCUCUGAGAGAAAUGCC [G49C U130C] | 1.67
UACGUAGGUGGUUUUCCCCUGAUAGUGCUAAGGGGGCCUGGAAGUUUGGACUGGGCAGAGUUCAACACAGCGAGGCAAAGUGGCUGUGGCUAGACUGCCUCUCUGGAUUCCUCGUCACUCAGCAGGGCAUCUCUGAGAGAAAUGCC [C61U U73A] | 0.02

Reference: the RNAGym collection of RNA variant scans (doi:10.7554/elife.90254)
